Assay results reported in PMC2553845 (2008).
Where no end group is shown, it is not given here.

B1: designed SCRIB PDZ-binding peptide Π-RSWFETWV (peptide 14) (peptide)
chain: RQIKIWFQNRRMKWKKRSWFETWV
modifications: not fully specified
B2: peptide 2, C terminus of the HTLV-1 Tax protein (peptide)
chain: KHFRETEV
modifications: not fully specified

How the values were obtained:
Test in all cases: ELISA
SCRIB PDZ domain 2 = target: T1, SCRIB PDZ domain 2 (human, UniProt Q14160 862-950)
T1 chain: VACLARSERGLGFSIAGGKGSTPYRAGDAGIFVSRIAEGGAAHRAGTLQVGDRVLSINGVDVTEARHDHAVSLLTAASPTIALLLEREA

SCRIB PDZ domain 1 = SCRIB PDZ domain 1 (human, UniProt Q14160 728-815)
Sequence of SCRIB PDZ domain 1 (Q14160 728-815): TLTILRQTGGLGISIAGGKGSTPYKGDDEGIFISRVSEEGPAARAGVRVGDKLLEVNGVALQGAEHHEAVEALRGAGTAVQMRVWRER

SCRIB PDZ domain 3 = target: T2, SCRIB PDZ domain 3 (human, UniProt Q14160 1004-1093)
T2 chain: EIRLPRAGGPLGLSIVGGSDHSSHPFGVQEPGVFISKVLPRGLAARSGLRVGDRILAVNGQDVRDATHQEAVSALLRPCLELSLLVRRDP

Binder	IC50 (SCRIB PDZ domain 2)	IC50 (SCRIB PDZ domain 1)	IC50 (SCRIB PDZ domain 3)
B1	4.7 µM	2.2 µM	3.9 µM
B2	5.2 µM	3.4 µM	58 µM
